Source: article PMC8205527, “Structural basis for the coiled-coil architecture of human CtIP” (Open Biology, 2021)

B1: CtIP-NTD (18–145) (domain or fragment, human, UniProt Q99708 18-145, looked up)
chain: SDFKDLWTKLKECHDREVQGLQVKVTKLKQERILDAQRLEEFFTKNQQLREQQKVLHETIKVLEDRLRAGLCDRCAVTEEHMRKKQQEFENIRQQNLKLITELMNERNTLQEENKKLSEQLQQKIEND
notes: also called CtIP N-terminal domain; source: E. coli BL21(DE3) Rosetta 2, purified (Ni-NTA, TEV cleavage, Strep-Tactin, SEC); not shown: His6, N-terminal, cleaved; MBP, N-terminal, cleaved
B2: CtIP-cNTD 31–145 (wild type) (domain or fragment, human, UniProt Q99708 31-145, looked up)
chain: HDREVQGLQVKVTKLKQERILDAQRLEEFFTKNQQLREQQKVLHETIKVLEDRLRAGLCDRCAVTEEHMRKKQQEFENIRQQNLKLITELMNERNTLQEENKKLSEQLQQKIEND
notes: also called wild-type CtIP-cNTD; C-terminal NTD; source: E. coli BL21(DE3) Rosetta 2, purified (Ni-NTA, TEV cleavage, Strep-Tactin, SEC); not shown: His6, N-terminal, cleaved; MBP, N-terminal, cleaved

Target: the molecule itself
Assay: SEC-SAXS; Superdex 200 Increase 3.2/300 in 20 mM Tris HCl 8.0, 300 mM NaCl; protein at 3–10 mg/ml; Guinier analysis, P(r), MONSA and BilboMD modelling

Row | Protein | stoichiometry N
1 | B1 | 4
2 | B2 | 2
